# Reference: paper PMC9271601 (Structure (London, England : 1993), 2022)
# B1: 1D12 B cell receptor on the donor's B cell (antibody, V domains shown)
# VH: QLVQSGAEVKKPGASVKVSCKASGYTFTGYYLHWVRQAPGQGLEWMGRINPDTGGTNYAQKFQGRVSMTRDMSISTHYMELSRLTSDDTAVYYCATKRGAVTAMVYYYFYGMDVWGQGTTVTVSS
# VL: DIVMTQSPLSLSVTPGEPASISCRSSHSLLHLNGYNYLDWYLQKPGQSPQLLIYLGSNRASGVPDRFSGSGSGTDFTLKISRVEAEDVGIYYCMQALRTPPGLTFGGGTKVDIK
# B2: 315–19-1D12 Fab (Fab, V domains shown)
# VH: B1 VH
# VL: B1 VL
# Columns and labels:
# [1] = target: H3 (A/Texas/50/2012) HA probe (Influenza A virus A/Texas/50/2012 (H3N2), UniProt R4L1D1, strain, biotin (biotin protein ligase, AviTag)); experiment: flow cytometry on cells
# [2] = target: H3N2 A/Victoria/361/2011 hemagglutinin trimer, wild type (Influenza A virus A/Victoria/361/2011 …, UniProt A0A097PF39, strain); experiment: BLI
Binder,binding result [1],binding result [2]
B1,binds,–
B2,–,binds
